# Laboratory results as given in article PMC2714705 (Structure (London, England : 1993), 2009).
# Values joined by “and” are separate entries in the source; they are usually repeats but may differ in a detail not shown here. Identical values can stand only once.
# T1: P22 portal protein gp1 in the tail machine purified from virions (bacteriophage P22, UniProt P26744 1-725)
# T1 sequence (looked up): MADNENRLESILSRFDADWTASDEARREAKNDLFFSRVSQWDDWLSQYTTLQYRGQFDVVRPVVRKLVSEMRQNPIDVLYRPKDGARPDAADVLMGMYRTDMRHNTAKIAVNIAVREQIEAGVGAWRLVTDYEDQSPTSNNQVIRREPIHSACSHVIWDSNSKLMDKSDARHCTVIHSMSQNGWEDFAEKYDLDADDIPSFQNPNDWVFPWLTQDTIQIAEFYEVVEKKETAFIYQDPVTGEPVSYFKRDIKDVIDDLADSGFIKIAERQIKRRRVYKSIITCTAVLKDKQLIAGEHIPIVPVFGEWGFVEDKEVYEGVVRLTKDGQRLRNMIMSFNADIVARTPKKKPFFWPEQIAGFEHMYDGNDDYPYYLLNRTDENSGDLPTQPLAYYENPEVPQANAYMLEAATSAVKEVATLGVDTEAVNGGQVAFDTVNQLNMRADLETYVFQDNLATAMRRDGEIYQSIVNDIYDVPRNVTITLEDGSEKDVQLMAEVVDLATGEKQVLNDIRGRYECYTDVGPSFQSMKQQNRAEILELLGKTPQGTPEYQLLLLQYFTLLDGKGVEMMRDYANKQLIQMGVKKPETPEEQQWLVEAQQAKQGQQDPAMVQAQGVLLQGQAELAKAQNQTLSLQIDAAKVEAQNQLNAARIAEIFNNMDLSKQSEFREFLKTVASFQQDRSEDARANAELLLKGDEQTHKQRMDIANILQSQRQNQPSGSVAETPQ
# T2: P22 assembly-naïve portal, full length His-tagged gp1 (bacteriophage P22), P26744
# T2 chain: T1 sequence (looked up)
# B1: P22 gp4 (natural protein, bacteriophage P22, UniProt P26746 1-166, looked up)
# chain: MQIKTKGDLVRAALRKLGVASDATLTDVEPQSMQDAVDDLEAMMAEWYQDGKGIITGYVFSDDENPPAEGDDHGLRSSAVSAVFHNLACRIAPDYALEATAKIIATAKYGKELLYKQTAISRAKRAPYPSRMPTGSGNSFANLNEWHYFPGEQNADSTTPHDEGNG
# B2: P22 assembly-naïve portal, full length His-tagged gp1, P26744 1-725 (natural protein)
# chain: T1 sequence (looked up)
# B3: P22 gp26 tail needle (natural protein, bacteriophage P22)
# chain: MADPSLNNPVVIQATRLDASILPRNVFSKSYLLYVIAQGTDVGAIAGKANEAGQGAYDAQVKNDEQDVELADHEARIKQLRIDVDDHESRITANTKAITALNVRVTTAEGEIASLQTNVSALDGRVTTAENNISALQADYVSKTATTSQSLASPLNVTTSYSVGGKKVLGARQTGWTAATGTANKGVFDADLTFAVSDTYTQSEIQAIANALITERRRTKALEDALRAHGLID
# How the values were obtained:
# Test in all cases: cryo-EM structure
# P22 gp9 tailspike = P22 gp9 tailspike (bacteriophage P22, UniProt P12528 1-667)
# cryo-EM structure = molecular target: the molecule itself
# [1] = molecular target: T1, P22 portal protein gp1 in the tail …
# [2] = molecular target: T2, P22 assembly-naïve portal, full length …; conditions: remark: other sources report otherwise
Binder,binding result (P22 gp9 tailspike),binding result (cryo-EM structure),binding result [1],stoichiometry N [2]
B1,binds,binds,binds,
B2,,,,11 and 12
B3,,binds,,
